Test [1] has as its target human CD63 (human) (UniProt P08962). The experiment in a line: imaging of stained T47D cells, 10 ug/mL antibody.
For test [2] the target is unchanged. The test is described as follows: ECL, U87MG cells; signal < 100 RLU, classed non-binder.
The target is the same in test [3]. The experiment in a line: flow cytometry, HEK293 cells.

Among the data in patent US20210079109A1 are Total RFU, binding ratio and S/N (MFI over no-antibody wells) values, retold here.

human CD63 (human), sequence (P08962 2-238 limits assumed): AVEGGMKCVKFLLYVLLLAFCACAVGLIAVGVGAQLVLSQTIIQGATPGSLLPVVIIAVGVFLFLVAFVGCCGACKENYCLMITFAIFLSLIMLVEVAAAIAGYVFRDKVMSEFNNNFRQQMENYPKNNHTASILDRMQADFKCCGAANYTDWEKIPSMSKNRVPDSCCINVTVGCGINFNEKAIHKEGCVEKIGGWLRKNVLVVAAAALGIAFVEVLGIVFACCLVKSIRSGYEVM

For Human IgG4 isotype control (antibody), in the test with human CD63 (human) [1], the Total RFU at 4C was found to be 138000 RFU and the Total RFU at 37C (2 h) is -80500 RFU. In addition, the binding ratio at 3.7 nM vs NIH3T3 in the test with human CD63 (human) [2] turned out to be 4 fold.

In the test with human CD63 (human) [3], Isotype Control 1 (antibody) returned a S/N (MFI over no-antibody wells) of 1.4.

In the test with human CD63 (human) [3], Isotype Control 2 (antibody) came in with a S/N (MFI over no-antibody wells) of 1.5.

In the test with human CD63 (human) [1], mIgG1 Isotype control (antibody) gave a Total RFU at 4C of -93900 RFU and a Total RFU at 37C (2 h) of 57400 RFU.

Consider mIgG2a Isotype control (antibody), for which, in the test with human CD63 (human) [1], the Total RFU at 4C is -73400 RFU and the Total RFU at 37C (2 h) is 65400 RFU.
